From publication PMC10215022

What was measured:
[1] = molecular target: SARS-CoV-2 Wuhan (WT) spike protein RBD, His-tagged (SARS-CoV-2 Wuhan (WT)) (UniProt P0DTC2); assay: SPR
[2] = molecular target: SARS-CoV-2 Omicron BA.5 spike protein, plate-bound (MSD V-PLEX) (SARS-CoV-2 Omicron BA.5)

Row | Substance | Kd [1] | koff [1] | kon [1] | IC50 [2]
1 | decavalent IgM ACE2 decoy (from UniProt Q9BYF1;P01591) (Fc fusion) | 0.097 nM | 3.5e-05 s⁻¹ | 380000 M⁻¹ s⁻¹ | 
2 | REGEN-COV mAb cocktail (casirivimab and imdevimab at 1:1 molar ratio) |  |  |  | 5.2 nM
